Test results from patent publication US8840891 (RSR, dated 2014).
Read-outs that look alike come from different tables or passages of the source.

Assays:
Assay in all cases: cell-based or functional assay
[1] = biological target: TSHR with Tyr82 mutated to Alanine (human) (UniProt P16473)
[2] = biological target: wild type human TSHR (human) (UniProt P16473)
[3] = biological target: TSHR with Lys58 mutated to Alanine (human) (UniProt P16473)
[4] = biological target: wild type human TSHR (human) (UniProt P16473); remark: listed apart in the source
[5] = biological target: human TSHR Asp203Ala, expressed in CHO cells (human) (UniProt P16473)
[6] = biological target: human TSHR with Asp276 mutated to Alanine, expressed in CHO cells (human) (UniProt P16473)
[7] = biological target: human TSHR expressed on CHO cells (human) (UniProt P16473)
[8] = biological target: human TSHR (wild type) expressed in CHO cells (human) (UniProt P16473)

Chain of 5C9 IgG (antibody) (VH): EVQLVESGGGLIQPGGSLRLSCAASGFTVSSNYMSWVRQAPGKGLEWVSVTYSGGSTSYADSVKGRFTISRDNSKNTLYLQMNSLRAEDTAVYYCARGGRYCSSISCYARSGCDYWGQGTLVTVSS
Chain of 5C9 IgG (antibody) (VL): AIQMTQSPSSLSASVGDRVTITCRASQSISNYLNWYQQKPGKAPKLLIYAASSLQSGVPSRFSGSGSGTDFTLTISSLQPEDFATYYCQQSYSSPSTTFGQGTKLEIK

5C9 IgG (antibody)
Mutated/wild type (%); 5C9 0.01 µg/mL + TSH [1]: 113%
Mutated/wild type (%); 5C9 0.1 µg/mL + TSH [1]: 203%
Mutated/wild type (%); 5C9 1.0 µg/mL + TSH [1]: 185%
Mutated/wild type (%); 5C9 10 µg/mL + TSH [1]: 200%
Mutated/wild type (%); 5C9 100 µg/mL + TSH [1]: 105%
Mutated/wild type (%); 5C9 100 µg/mL only [1]: 494%
cyclic AMP; 5C9 0.01 µg/mL + TSH (fmol/cell well) [1]: 15700
cyclic AMP; 5C9 0.1 µg/mL + TSH (fmol/cell well) [1]: 12700
cyclic AMP; 5C9 1.0 µg/mL + TSH (fmol/cell well) [1]: 2960
cyclic AMP; 5C9 10 µg/mL + TSH (fmol/cell well) [1]: 1650
cyclic AMP; 5C9 100 µg/mL + TSH (fmol/cell well) [1]: 1030
cyclic AMP; 5C9 100 µg/mL only (fmol/cell well) [1]: 1430
cyclic AMP; 5C9 0.01 µg/mL + TSH (fmol/cell well) [2]: 13900
cyclic AMP; 5C9 0.1 µg/mL + TSH (fmol/cell well) [2]: 6250
cyclic AMP; 5C9 1.0 µg/mL + TSH (fmol/cell well) [2]: 1600
cyclic AMP; 5C9 10 µg/mL + TSH (fmol/cell well) [2]: 822
cyclic AMP; 5C9 100 µg/mL + TSH (fmol/cell well) [2]: 978
cyclic AMP; 5C9 100 µg/mL only (fmol/cell well) [2]: 289
Mutated/wild type (%); 5C9 0.01 µg/mL + TSH [3]: 108%
Mutated/wild type (%); 5C9 0.1 µg/mL + TSH [3]: 104%
Mutated/wild type (%); 5C9 1.0 µg/mL + TSH [3]: 195%
Mutated/wild type (%); 5C9 10 µg/mL + TSH [3]: 272%
Mutated/wild type (%); 5C9 100 µg/mL + TSH [3]: 190%
cyclic AMP; 5C9 0.01 µg/mL + TSH (fmol/cell well) [3]: 7910
cyclic AMP; 5C9 0.1 µg/mL + TSH (fmol/cell well) [3]: 4820
cyclic AMP; 5C9 1.0 µg/mL + TSH (fmol/cell well) [3]: 1790
cyclic AMP; 5C9 10 µg/mL + TSH (fmol/cell well) [3]: 955
cyclic AMP; 5C9 100 µg/mL + TSH (fmol/cell well) [3]: 1000
cyclic AMP; 5C9 100 µg/mL only (fmol/cell well) [3]: < 25
cyclic AMP; 100 µg/mL 5C9 IgG only (fmol/cell well) [4]: 253
cyclic AMP; 5C9 0.01 µg/mL + TSH (fmol/cell well) [4]: 7340
cyclic AMP; 5C9 0.1 µg/mL + TSH (fmol/cell well) [4]: 4640
cyclic AMP; 5C9 1.0 µg/mL + TSH (fmol/cell well) [4]: 918
cyclic AMP; 5C9 10 µg/mL + TSH (fmol/cell well) [4]: 351
cyclic AMP; 5C9 100 µg/mL + TSH (fmol/cell well) [4]: 528
cyclic AMP; 5C9 100 µg/mL only (fmol/cell well) [4]: 47
cyclic AMP; T21 + 0.001 µg/mL 5C9 IgG (fmol/cell well) [4]: 11300
cyclic AMP; T21 + 0.01 µg/mL 5C9 IgG (fmol/cell well) [4]: 10400
cyclic AMP; T21 + 0.1 µg/mL 5C9 IgG (fmol/cell well) [4]: 7480
cyclic AMP; T21 + 1 µg/mL 5C9 IgG (fmol/cell well) [4]: 418
cyclic AMP; T21 + 10 µg/mL 5C9 IgG (fmol/cell well) [4]: 303
cyclic AMP; T21 + 100 µg/mL 5C9 IgG (fmol/cell well) [4]: 210
% inhibition of TSH stimulated cyclic AMP level; pTSH 3 ng/mL + 1 µg/mL 5C9 [5]: 4%
cyclic AMP concentration; pTSH 3 ng/mL + 1 µg/mL 5C9 (mean of duplicate samples) (fmol/cell well) [5]: 9400
Cyclic AMP produced; 5C9 0.01 µg/mL + pTSH 3 ng/mL; Experiment 1 (fmol/cell well) [6]: 26200
Cyclic AMP produced; 5C9 0.01 µg/mL + pTSH 3 ng/mL; Experiment 2 (fmol/cell well) [6]: 21200
Cyclic AMP produced; 5C9 0.1 µg/mL + pTSH 3 ng/mL; Experiment 1 (fmol/cell well) [6]: 16900
Cyclic AMP produced; 5C9 0.1 µg/mL + pTSH 3 ng/mL; Experiment 2 (fmol/cell well) [6]: 7320
Cyclic AMP produced; 5C9 1.0 µg/mL + pTSH 3 ng/mL; Experiment 1 (fmol/cell well) [6]: 4790
Cyclic AMP produced; 5C9 1.0 µg/mL + pTSH 3 ng/mL; Experiment 2 (fmol/cell well) [6]: 1510
Cyclic AMP produced; 5C9 10 µg/mL + pTSH 3 ng/mL; Experiment 1 (fmol/cell well) [6]: 1380
Cyclic AMP produced; 5C9 10 µg/mL + pTSH 3 ng/mL; Experiment 2 (fmol/cell well) [6]: 1300
Cyclic AMP produced; 5C9 100 µg/mL + pTSH 3 ng/mL; Experiment 1 (fmol/cell well) [6]: 565
Cyclic AMP produced; 5C9 100 µg/mL + pTSH 3 ng/mL; Experiment 2 (fmol/cell well) [6]: 288
Cyclic AMP produced; 5C9 100 µg/mL only (no TSH); Experiment 1 (fmol/cell well) [6]: 602
Cyclic AMP produced; 5C9 100 µg/mL only (no TSH); Experiment 2 (fmol/cell well) [6]: 314
Mutated/wild type (%) of cyclic AMP; 5C9 0.01 µg/mL + pTSH 3 ng/mL; Experiment 1 [6]: 152%
Mutated/wild type (%) of cyclic AMP; 5C9 0.01 µg/mL + pTSH 3 ng/mL; Experiment 2 [6]: 151%
Mutated/wild type (%) of cyclic AMP; 5C9 0.1 µg/mL + pTSH 3 ng/mL; Experiment 1 [6]: 301%
Mutated/wild type (%) of cyclic AMP; 5C9 0.1 µg/mL + pTSH 3 ng/mL; Experiment 2 [6]: 164%
Mutated/wild type (%) of cyclic AMP; 5C9 1.0 µg/mL + pTSH 3 ng/mL; Experiment 1 [6]: 631%
Mutated/wild type (%) of cyclic AMP; 5C9 1.0 µg/mL + pTSH 3 ng/mL; Experiment 2 [6]: 230%
Mutated/wild type (%) of cyclic AMP; 5C9 10 µg/mL + pTSH 3 ng/mL; Experiment 1 [6]: 378%
Mutated/wild type (%) of cyclic AMP; 5C9 10 µg/mL + pTSH 3 ng/mL; Experiment 2 [6]: 240%
Mutated/wild type (%) of cyclic AMP; 5C9 100 µg/mL + pTSH 3 ng/mL; Experiment 1 [6]: 164%
Mutated/wild type (%) of cyclic AMP; 5C9 100 µg/mL + pTSH 3 ng/mL; Experiment 2 [6]: 101%
Mutated/wild type (%) of cyclic AMP; 5C9 100 µg/mL only (no TSH); Experiment 1 [6]: 201%
Mutated/wild type (%) of cyclic AMP; 5C9 100 µg/mL only (no TSH); Experiment 2 [6]: 151%
Cyclic AMP, serum T1 + 0.001 µg/mL 5C9 IgG (fmol/cell well) [7]: 16900
Cyclic AMP, serum T1 + 0.01 µg/mL 5C9 IgG (fmol/cell well) [7]: 20300
Cyclic AMP, serum T1 + 0.1 µg/mL 5C9 IgG (fmol/cell well) [7]: 16200
Cyclic AMP, serum T1 + 1 µg/mL 5C9 IgG (fmol/cell well) [7]: 2430
Cyclic AMP, serum T1 + 10 µg/mL 5C9 IgG (fmol/cell well) [7]: 1120
Cyclic AMP, serum T3 + 0.001 µg/mL 5C9 IgG (fmol/cell well) [7]: 11600
Cyclic AMP, serum T3 + 0.01 µg/mL 5C9 IgG (fmol/cell well) [7]: 13700
Cyclic AMP, serum T3 + 0.1 µg/mL 5C9 IgG (fmol/cell well) [7]: 10400
Cyclic AMP, serum T3 + 1 µg/mL 5C9 IgG (fmol/cell well) [7]: 8080
Cyclic AMP, serum T3 + 10 µg/mL 5C9 IgG (fmol/cell well) [7]: 7810
Cyclic AMP, serum T6 + 0.001 µg/mL 5C9 IgG (fmol/cell well) [7]: 11800
Cyclic AMP, serum T6 + 0.01 µg/mL 5C9 IgG (fmol/cell well) [7]: 13900
Cyclic AMP, serum T6 + 0.1 µg/mL 5C9 IgG (fmol/cell well) [7]: 9530
Cyclic AMP, serum T6 + 1 µg/mL 5C9 IgG (fmol/cell well) [7]: 2370
Cyclic AMP, serum T6 + 10 µg/mL 5C9 IgG (fmol/cell well) [7]: 1030
Cyclic AMP, serum T19 + 0.001 µg/mL 5C9 IgG (mean of duplicate) (fmol/cell well) [7]: 6470
Cyclic AMP, serum T19 + 0.01 µg/mL 5C9 IgG (fmol/cell well) [7]: 5750
Cyclic AMP, serum T19 + 0.1 µg/mL 5C9 IgG (fmol/cell well) [7]: 375
Cyclic AMP, serum T19 + 1 µg/mL 5C9 IgG (fmol/cell well) [7]: 187
Cyclic AMP, serum T19 + 10 µg/mL 5C9 IgG (fmol/cell well) [7]: 275
Cyclic AMP, serum T20 + 0.001 µg/mL 5C9 IgG (mean of duplicate) (fmol/cell well) [7]: 4860
Cyclic AMP, serum T20 + 0.01 µg/mL 5C9 IgG (fmol/cell well) [7]: 6490
Cyclic AMP, serum T20 + 0.1 µg/mL 5C9 IgG (fmol/cell well) [7]: 2180
% inhibition of TSH stimulated cyclic AMP level; pTSH 3 ng/mL + 1 µg/mL 5C9 [8]: 92%
Cyclic AMP produced; 5C9 0.01 µg/mL + pTSH 3 ng/mL; Experiment 1 (fmol/cell well) [8]: 17200
Cyclic AMP produced; 5C9 0.01 µg/mL + pTSH 3 ng/mL; Experiment 2 (fmol/cell well) [8]: 14100
Cyclic AMP produced; 5C9 0.1 µg/mL + pTSH 3 ng/mL; Experiment 1 (fmol/cell well) [8]: 5590
Cyclic AMP produced; 5C9 0.1 µg/mL + pTSH 3 ng/mL; Experiment 2 (fmol/cell well) [8]: 4460
Cyclic AMP produced; 5C9 1.0 µg/mL + pTSH 3 ng/mL; Experiment 1 (mean of duplicate determinations) (fmol/cell well) [8]: 759
Cyclic AMP produced; 5C9 1.0 µg/mL + pTSH 3 ng/mL; Experiment 2 (fmol/cell well) [8]: 657
Cyclic AMP produced; 5C9 10 µg/mL + pTSH 3 ng/mL; Experiment 1 (fmol/cell well) [8]: 366
Cyclic AMP produced; 5C9 10 µg/mL + pTSH 3 ng/mL; Experiment 2 (fmol/cell well) [8]: 541
Cyclic AMP produced; 5C9 100 µg/mL + pTSH 3 ng/mL; Experiment 1 (fmol/cell well) [8]: 344
Cyclic AMP produced; 5C9 100 µg/mL + pTSH 3 ng/mL; Experiment 2 (fmol/cell well) [8]: 286
Cyclic AMP produced; 5C9 100 µg/mL only (no TSH); Experiment 1 (fmol/cell well) [8]: 300
Cyclic AMP produced; 5C9 100 µg/mL only (no TSH); Experiment 2 (fmol/cell well) [8]: 208
cyclic AMP concentration; pTSH 3 ng/mL + 1 µg/mL 5C9 (fmol/cell well) [8]: 1110
